Data on 4 variants can be found in IntAct's records for PubMed 19966800.

First the molecules themselves.
B1: Cytotoxicity-associated immunodominant antigen (Helicobacter pylori), P55980 (parent)
chain: MTNETIDQTRTPDQTQSQTAFDPQQFINNLQVAFIKVDNVVASFDPDQKPIVDKNDRDNRQAFDGISQLREEYSNKAIKNPTKKNQYFSDFIDKSNDLINKDNLIDVESSTKSFQKFGDQRYQIFTSWVSHQKDPSKINTRSIRNFMENIIQPPIPDDKEKAEFLKSAKQSFAGIIIGNQIRTDQKFMGVFDESLKERQEAEKNGGPTGGDWLDIFLSFIFNKKQSSDVKEAINQEPVPHVQPDIATTTTDIQGLPPEARDLLDERGNFSKFTLGDMEMLDVEGVADIDPNYKFNQLLIHNNALSSVLMGSHNGIEPEKVSLLYAGNGGFGDKHDWNATVGYKDQQGNNVATLINVHMKNGSGLVIAGGEKGINNPSFYLYKEDQLTGSQRALSQEEIRNKVDFMEFLAQNNTKLDNLSEKEKEKFQNEIEDFQKDSKAYLDALGNDRIAFVSKKDTKHSALITEFNNGDLSYTLKDYGKKADKALDREKNVTLQGSLKHDGVMFVDYSNFKYTNASKNPNKGVGATNGVSHLEAGFNKVAVFNLPDLNNLAITSFVRRNLENKLTAKGLSLQEANKLIKDFLSSNKELAGKALNFNKAVAEAKSTGNYDEVKKAQKDLEKSLRKREHLEKEVEKKLESKSGNKNKMEAKAQANSQKDEIFALINKEANRDARAIAYTQNLKGIKRELSDKLEKISKDLKDFSKSFDEFKNGKNKDFSKAEETLKALKGSVKDLGINPEWISKVENLNAALNEFKNGKNKDFSKVTQAKSDLENSVKDVIINQKVTDKVDNLNQAVSVAKAMGDFSRVEQVLADLKNFSKEQLAQQAQKNEDFNTGKNSELYQSVKNSVNKTLVGNGLSGIEATALAKNFSDIKKELNEKFKNFNNNNNGLKNSTEPIYAKVNKKKTGQVASPEEPIYTQVAKKVNAKIDRLNQIASGLGGVGQAAGFPLKRHDKVDDLSKVGLSASPEPIYATIDDLGGPFPLKRHDKVDDLSKVGRSRNQELAQKIDNLNQAVSEAKAGFFGNLEQTIDKLKDSTKKNVMNLYVESAKKVPASLSAKLDNYAINSHTRINSNIQNGAINEKATGMLTQKNPEWLKLVNDKIVAHNVGSVSLSEYDKIGFNQKNMKDYSDSFKFSTKLNNAVKDIKSGFTHFLANAFSTGYYCLARENAEHGIKNVNTKGGFQKS

In this experiment the parent is B1. As to conditions: with mark2_human MARK2, Q7KZI7.
Chain of mark2_human MARK2, Q7KZI7 (Q7KZI7 whole entry): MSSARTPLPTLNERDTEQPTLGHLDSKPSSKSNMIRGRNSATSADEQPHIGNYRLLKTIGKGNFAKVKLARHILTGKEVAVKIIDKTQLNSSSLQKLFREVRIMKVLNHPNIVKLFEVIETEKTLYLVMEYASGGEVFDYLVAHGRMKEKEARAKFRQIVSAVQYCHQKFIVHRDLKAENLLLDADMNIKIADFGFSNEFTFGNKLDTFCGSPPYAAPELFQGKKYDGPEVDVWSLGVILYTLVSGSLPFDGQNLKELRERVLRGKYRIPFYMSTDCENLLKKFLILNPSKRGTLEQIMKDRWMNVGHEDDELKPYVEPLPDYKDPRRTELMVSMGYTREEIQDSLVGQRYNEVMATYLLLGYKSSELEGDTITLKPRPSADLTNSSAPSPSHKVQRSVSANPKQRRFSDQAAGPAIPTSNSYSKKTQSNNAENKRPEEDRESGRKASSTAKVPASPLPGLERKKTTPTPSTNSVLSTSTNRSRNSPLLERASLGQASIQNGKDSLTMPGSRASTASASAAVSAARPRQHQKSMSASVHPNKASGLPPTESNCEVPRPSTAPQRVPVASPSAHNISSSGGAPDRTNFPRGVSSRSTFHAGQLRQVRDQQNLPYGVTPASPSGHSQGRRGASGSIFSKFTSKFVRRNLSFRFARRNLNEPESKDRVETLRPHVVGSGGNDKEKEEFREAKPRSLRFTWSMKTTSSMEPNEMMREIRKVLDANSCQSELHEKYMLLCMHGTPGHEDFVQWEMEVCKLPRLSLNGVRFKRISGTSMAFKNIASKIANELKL
On to L959G, for which the “effect of a mutation on the interaction” value was “disrupting interaction”. Under R952G stands “decreasing interaction”; under V956G, “disrupting interaction”. For the variant L950G, the “effect of a mutation on the interaction” value was “disrupting interaction”.
